Data taken from CN106749645A.

Molecular target: HCV包膜糖蛋白
Test: cell-based or functional assay

B1: 全人源抗HCV中和抗体TRN1002 (antibody)
heavy: QVQLVQSGAEVKKPGSSVRVSCKASGGTLGSFAGSWVRQAPGQGLEWIGGIIPMFRRTNYAQKFQGRVTITADESTGTTYLELSSLRSDDTAIYFCAREIPGYCTGGRCFGYFDYWGQGTLVTVSS
light: EIVLTQSPGTLSLSPGESATLSCRASQHVNSNFLAWYQQKRGQTPRLLIYAASSRATGIPDRFSGSGSGTDFTLTISRLEPEDFAVYYCQQYGTSLTFGQGTKVEIK
- Luciferase活性 (荧光值), HCVpp感染Huh7细胞: 100 %
